This is an account of results in paper PMC9944232.

One data set deals with AIFΔ101 D489A/K518A (Homo sapiens, UniProt O95831 102-613, D489A;K518A). Nature of the data set: ITC; binary; ITC: 50 mM potassium phosphate pH 7.4, 15 °C (25 °C with CypA); EMSA: same buffer, 25 °C, 30 min, 2% agarose; AFM on mica at room temperature. The following applies: protein: recombinant; tags: N-terminal His6; blunt. Background: ITC needs no label: the signal is the heat of the interaction.

The next data set deals with AIFΔ101 K510A/K518A (Homo sapiens, UniProt O95831 102-613, K510A;K518A). The data set is described as above. The following applies: protein: recombinant; tags: N-terminal His6; blunt.
Chain of AIFΔ101 K510A/K518A (O95831 102-613 K510A/K518A): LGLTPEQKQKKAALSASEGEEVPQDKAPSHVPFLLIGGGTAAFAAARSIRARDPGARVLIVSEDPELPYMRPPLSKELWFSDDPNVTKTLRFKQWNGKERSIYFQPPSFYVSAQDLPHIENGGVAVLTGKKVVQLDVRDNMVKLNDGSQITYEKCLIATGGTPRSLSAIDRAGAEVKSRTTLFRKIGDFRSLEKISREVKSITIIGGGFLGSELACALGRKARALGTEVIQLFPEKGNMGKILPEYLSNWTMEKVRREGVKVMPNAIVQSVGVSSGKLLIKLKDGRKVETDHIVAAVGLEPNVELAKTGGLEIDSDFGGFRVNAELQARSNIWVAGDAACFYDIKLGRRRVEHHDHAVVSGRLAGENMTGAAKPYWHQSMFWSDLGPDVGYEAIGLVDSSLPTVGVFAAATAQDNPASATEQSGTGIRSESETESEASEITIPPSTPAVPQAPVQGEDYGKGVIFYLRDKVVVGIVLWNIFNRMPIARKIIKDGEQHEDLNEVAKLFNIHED
The target of a further data set is AIFΔ101 WT (Homo sapiens, UniProt O95831 102-613). Nature of the data set: ITC; binary, no added metal; 15 °C; ITC: 50 mM potassium phosphate pH 7.4, 15 °C (25 °C with CypA); EMSA: same buffer, 25 °C, 30 min, 2% agarose; AFM on mica at room temperature. The following applies: protein: recombinant; tags: N-terminal His6; blunt.
Chain of AIFΔ101 WT (O95831 102-613, stated change not applied): as the sequence (O95831 102-613 K510A/K518A) above, with A409K, A417K counted along it
In another data set the target is AIFΔ101 WT;CypA (Homo sapiens;Homo sapiens, UniProt O95831;P62937 102-613;1-165, |). The data set can be described thus: ITC; dsDNA titrated into AIF:CypA 1:1; negative cooperativity; ITC: 50 mM potassium phosphate pH 7.4, 15 °C (25 °C with CypA); EMSA: same buffer, 25 °C, 30 min, 2% agarose; AFM on mica at room temperature. The following applies: protein: recombinant;recombinant; tags: N-terminal His6;N-terminal His6; copies: 1;1; blunt.
Chain of AIFΔ101 WT;CypA (O95831 102-613, stated change not applied, chain 1 of 2): as the sequence (O95831 102-613 K510A/K518A) above, with A409K, A417K counted along it
Chain of AIFΔ101 WT;CypA (P62937 whole entry, stated change not applied, chain 2 of 2): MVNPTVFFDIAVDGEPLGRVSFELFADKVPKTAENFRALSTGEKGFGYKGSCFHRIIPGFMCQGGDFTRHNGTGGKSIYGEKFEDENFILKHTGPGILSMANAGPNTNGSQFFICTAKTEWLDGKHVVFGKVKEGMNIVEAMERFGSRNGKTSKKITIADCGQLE

For a further data set, the target named is AIFΔ101 WT;Histone H2AX (Homo sapiens;Homo sapiens, UniProt O95831;P16104 102-613;1-143, |). Nature of the data set: ITC; dsDNA titrated into AIF:H2AX 1:1; positive cooperativity; ITC: 50 mM potassium phosphate pH 7.4, 15 °C (25 °C with CypA); EMSA: same buffer, 25 °C, 30 min, 2% agarose; AFM on mica at room temperature. The following applies: protein: recombinant;recombinant; tags: N-terminal His6;N-terminal His6 (PreScission site); copies: 1;1; blunt.
Chain of AIFΔ101 WT;Histone H2AX (O95831 102-613, stated change not applied, chain 1 of 2, other chains not shown): as the sequence (O95831 102-613 K510A/K518A) above, with A409K, A417K counted along it

For another data set, the target named is Histone H2AX (Homo sapiens, UniProt P16104 1-143). Nature of the data set: ITC; binary; stronger than CypA; value in Table S4 not in material; ITC: 50 mM potassium phosphate pH 7.4, 15 °C (25 °C with CypA); EMSA: same buffer, 25 °C, 30 min, 2% agarose; AFM on mica at room temperature. The following applies: protein: recombinant; tags: N-terminal His6 (PreScission site); blunt.

Data set [1] concerns the target AIFΔ101 WT;CypA;Histone H2AX (Homo sapiens;Homo sapiens;Homo sapiens, UniProt O95831;P62937;P16104 102-613;1-165;1-143, ||). Nature of the data set: ITC; dsDNA titrated into AIF:CypA with varied H2AX; intrinsic Kd from cooperativity fit, alpha 9.7; ITC: 50 mM potassium phosphate pH 7.4, 15 °C (25 °C with CypA); EMSA: same buffer, 25 °C, 30 min, 2% agarose; AFM on mica at room temperature. The following applies: protein: recombinant;recombinant;recombinant; tags: N-terminal His6;N-terminal His6;N-terminal His6 (PreScission site); copies: 1;1;1; blunt.

Chain of AIFΔ101 D489A/K518A (O95831 102-613 D489A/K518A): as the sequence (O95831 102-613 K510A/K518A) above, with D388A, A409K counted along it
Chain of AIFΔ101 WT;CypA;Histone H2AX (O95831 102-613, stated change not applied, chain 1 of 3, other chains not shown): as the sequence (O95831 102-613 K510A/K518A) above, with A409K, A417K counted along it
Chain of AIFΔ101 WT;CypA;Histone H2AX (P62937 whole entry, stated change not applied, chain 2 of 3, other chains not shown): as the sequence (P62937 whole entry, stated change not applied, chain 2 of 2) above

B1: 15-bp dsDNA (dsDNA)
DNA 1: GGTTAGTTATGCGCG
DNA 2: CGCGCATAACTAACC
With B1, the Kd with AIFΔ101 D489A/K518A was determined as 500 nM; with AIFΔ101 K510A/K518A it was 500 nM; with AIFΔ101 WT it was 2900 nM; in data set [1], 9100 nM. In addition, the binding result with AIFΔ101 WT;CypA, with AIFΔ101 WT;Histone H2AX and in the data set with Histone H2AX was “binds” each time.

A word on the Kd: it is the free concentration of one partner at which half of the binding sites on the other are occupied at equilibrium, for simple one-to-one binding.
